First the molecules themselves.
B1: ZMYM3 CT (amino acids 1000-1370), bacterially expressed (domain or fragment, human, UniProt Q14202 1000-1370, looked up)
chain: FPKNPLDINPSVDFLFDCGLVGPEDVSTEQDLPRTMRKGQKRLVLSESCSRDSMSSQPSCTGLNYSYGVNAWKCWVQSKYANGETSKGDELRFGPKPMRIKEDILACSAAELNYGLAQFVREITRPNGERYEPDSIYYLCLGIQQYLLENNRMVNIFTDLYYLTFVQELNKSLSTWQPTLLPNNTVFSRVEEEHLWECKQLGVYSPFVLLNTLMFFNTKFFGLQTAEEHMQLSFTNVVRQSRKCTTPRGTTKVVSIRYYAPVRQRKGRDTGPGKRKREDEAPILEQRENRMNPLRCPVKFYEFYLSKCPESLRTRNDVFYLQPERSCIAESPLWYSVIPMDRSMLESMLNRILAVREIYEELGRPGEEDLD

The target in experiment [1] is T1, full-length ABRA1, bacterially expressed (UniProt Q6UWZ7 1-409).
T1 sequence (looked up): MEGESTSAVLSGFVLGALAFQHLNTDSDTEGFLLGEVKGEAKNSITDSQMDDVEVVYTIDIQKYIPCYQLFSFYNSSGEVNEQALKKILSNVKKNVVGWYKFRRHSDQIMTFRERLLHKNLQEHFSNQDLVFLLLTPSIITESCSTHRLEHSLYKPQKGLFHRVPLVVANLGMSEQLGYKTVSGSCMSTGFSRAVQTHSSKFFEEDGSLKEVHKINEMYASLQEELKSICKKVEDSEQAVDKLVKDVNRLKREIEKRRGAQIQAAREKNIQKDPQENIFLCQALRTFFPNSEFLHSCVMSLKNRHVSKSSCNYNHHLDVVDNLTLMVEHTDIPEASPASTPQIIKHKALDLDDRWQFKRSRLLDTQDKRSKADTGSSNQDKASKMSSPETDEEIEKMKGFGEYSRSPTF
Kind of experiment: pull-down.

The target in experiment [2] is B1. The experiment can be described thus: pull-down.

This note sets out measurements from PMC5358723 (Genes & Development, 2017).

Turning to B1, in experiment [1], the binding result was “binds”.

B2: RAP80-AIR (amino acids 227-346), bacterially expressed (domain or fragment, UniProt Q96RL1 227-346, looked up)
chain: HTQCGKPQESTGRGSAFLKAVQGSGDTSRHCLPTLADAKGLQDTGGTVNYFWGIPFCPDGVDPNQYTKVILCQLEVYQKSLKMAQRQLLNKKGFGEPVLPRPPSLIQNECGQGEQASEKN
Turning to B2, the binding result in experiment [2] is given as “binds”.
